Assays:
Assay in all cases: NMR
Details in all cases: 30 °C
Glu28 (position 28, […]) = tested on: Glu28 (position 28, […])
Asp32 (position 32, […]) = tested on: Asp32 (position 32, […])
Glu43 (position 43, […]) = tested on: Glu43 (position 43, […])
Asp77 (position 77, […]) = tested on: Asp77 (position 77, […])
Asp46 (position 46, […]) = tested on: Asp46 (position 46, […])
Glu73 (position 73, […]) = tested on: Glu73 (position 73, […])
[1] = 50 mM NaCl (plus 20 mM phosphate and 5 mM polyanionic sclx8), D-fructose-bound RSL in the presence of 5 mM sclx8 (binding has mM affinity and is pH dependent)
[2] = 50 mM NaCl (plus 20 mM phosphate), D-fructose-bound RSL, no sclx8 (0 mM)

## Ralstonia solanacearum lectin (RSL), fucose-binding lectin (Ralstonia solanacearum)
Glu28 (position 28, […]); [1]
  pKa: < 2.0
Glu28 (position 28, […]); [2]
  pKa: < 2.0
Asp32 (position 32, […]); [1]
  pKa: 3.7±0.01
Asp32 (position 32, […]); [2]
  pKa: 1.7±0.02
Glu43 (position 43, […]); [1]
  pKa: 6.2±0.01
Glu43 (position 43, […]); [2]
  pKa: 5.9±0.01
Asp77 (position 77, […]); [1]
  pKa: < 2.0
Asp77 (position 77, […]); [2]
  pKa: < 2.0
Asp46 (position 46, […]); [1]
  pKa: 4.2±0.01
Asp46 (position 46, […]); [2]
  pKa: 3.5±0.01
Glu73 (position 73, […]); [1]
  pKa: < 2.0
Glu73 (position 73, […]); [2]
  pKa: < 2.0

From PMC8154523
